Measured values reported in patent US20170072032A1.
Each block holds one substance with its values, some of them ahead of it.

Tests used:
[1] = target: recombinant mouse FcRn, biotinylated, immobilized on sensor chip (mouse) (UniProt Q61559); experiment: SPR (Biacore), immobilized biotinylated mouse FcRn, analyte 0.78-100 nM, pH 5.4; Chi2 10.1
[2] = target: recombinant mouse FcRn, biotinylated, immobilized on sensor chip (mouse) (UniProt Q61559); experiment: SPR (Biacore), immobilized biotinylated mouse FcRn, analyte 0.78-100 nM, pH 6.4; Chi2 0.3
[3] = target: recombinant mouse FcRn, biotinylated, immobilized on sensor chip (mouse) (UniProt Q61559); experiment: SPR (Biacore), immobilized biotinylated mouse FcRn, analyte 0.78-100 nM, pH 5.4; Chi2 2.5
[4] = target: recombinant mouse FcRn, biotinylated, immobilized on sensor chip (mouse) (UniProt Q61559); experiment: SPR (Biacore), immobilized biotinylated mouse FcRn, analyte 0.78-100 nM, pH 6.4; Chi2 3.9
[5] = target: recombinant human FcRn, biotinylated, immobilized on sensor chip (human) (UniProt P55899); experiment: SPR (Biacore 2000), biotinylated human FcRn immobilized, analyte 0.78-200 nM, pH 5.4, 25 C, Langmuir fit with drifting baseline
[6] = target: recombinant mouse FcRn, biotinylated, immobilized on sensor chip (mouse) (UniProt Q61559); experiment: SPR (Biacore 2000), biotinylated mouse FcRn immobilized, analyte 0.78-200 nM, pH 5.4, 25 C, Langmuir fit with drifting baseline
[7] = target: neonatal Fc receptor (FcRn), endogenous mouse receptor in placenta / syncytiotrophoblast cells (mouse) (UniProt Q61559); experiment: cell-based or functional assay

Kd [1]: 8.53 nM | koff [1]: 0.00218 s⁻¹ | kon [1]: 256000 M⁻¹ s⁻¹ | Kd [2]: 52.9 nM | koff [2]: 0.0016 s⁻¹ | kon [2]: 30000 M⁻¹ s⁻¹
Substance: A2Fc (A2 domain of FVIII fused to mouse Fc gamma 1) (from UniProt P00451 392-759) (Fc fusion)

Kd [3]: 3.7 nM | koff [3]: 0.0011 s⁻¹ | kon [3]: 292000 M⁻¹ s⁻¹ | Kd [4]: 53 nM | koff [4]: 0.00347 s⁻¹ | kon [4]: 65000 M⁻¹ s⁻¹
Substance: C2Fc (C2 domain of FVIII fused to mouse Fc gamma 1) (from UniProt P00451 2192-2351) (Fc fusion)

Kd [5]: 15.3 nM | koff [5]: 0.00318 s⁻¹ | kon [5]: 208000 M⁻¹ s⁻¹ | Kd [6]: 5.4 nM | koff [6]: 0.00159 s⁻¹ | kon [6]: 292000 M⁻¹ s⁻¹
Substance: PPI2-Fc fusion protein (mouse preproinsulin 2 fused to the CH2-CH3 Fc domain of human IgG1) (from UniProt P01326 25-110)

diabetes-free offspring after IgG pre-treatment of pregnant mice 24 h before PPI-Fc (% diabetes-free mice) [7]: 49 | Kd [5]: 6.4 nM | koff [5]: 0.00492 s⁻¹ | kon [5]: 765000 M⁻¹ s⁻¹ | Kd [6]: 1.5 nM | koff [6]: 0.00248 s⁻¹ | kon [6]: 1.63e+06 M⁻¹ s⁻¹
Substance: anti-CD20 rituximab monoclonal antibody (Roche), used as human IgG1 control
